The values that follow are results of earlier work, collected in PMC7970000.

Where two headings read alike, the source gives them in different places.

Series [1] addresses SNX3-retromer complex (Homo sapiens) (UniProt O60493).
Series [2] has as its target VPS29 (Homo sapiens) (UniProt Q9UBQ0).
A further series addresses retromer (Homo sapiens) (UniProt O75436).
Series [3] has as its target VPS29 (Homo sapiens) (UniProt Q9UBQ0). The source holds these as a separate data set.

Sequence of UniProt O60493 (O60493 2-162, chain 1 of 2): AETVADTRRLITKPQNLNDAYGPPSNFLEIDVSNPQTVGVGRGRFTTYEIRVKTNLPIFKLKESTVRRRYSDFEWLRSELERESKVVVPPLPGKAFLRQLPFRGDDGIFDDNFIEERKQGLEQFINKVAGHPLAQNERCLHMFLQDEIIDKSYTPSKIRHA
Sequence of UniProt O60493 (O75436 whole entry, chain 2 of 2, further chain): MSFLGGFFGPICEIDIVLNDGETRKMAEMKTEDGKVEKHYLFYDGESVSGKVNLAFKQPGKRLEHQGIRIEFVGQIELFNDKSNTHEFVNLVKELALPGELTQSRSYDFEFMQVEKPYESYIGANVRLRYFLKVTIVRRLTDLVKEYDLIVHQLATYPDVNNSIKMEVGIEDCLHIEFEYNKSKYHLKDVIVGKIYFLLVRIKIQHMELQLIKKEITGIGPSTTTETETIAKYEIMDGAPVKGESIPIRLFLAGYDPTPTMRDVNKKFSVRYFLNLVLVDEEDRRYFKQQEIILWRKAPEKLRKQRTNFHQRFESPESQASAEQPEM
Sequence of UniProt O75436 (O75436 whole entry): as the sequence (O75436 whole entry, chain 2 of 2, further chain) above

Regarding DMT1-II (from UniProt P49281), the Kd in series [1] is 127 µM. Turning to “VARP CHPLCxCxxC motif (from UniProt Q96NW4)”, the dissociation constant Kd in the series with VPS29 (Homo sapiens) [2] was 3.5 µM.

For the substance TBC1D5 (from UniProt Q92609), the figures for the Kd with retromer (Homo sapiens) and in the series with VPS29 (Homo sapiens) [3] were 0.335 µM and 20 µM, respectively.
